Among the data in patent publication US20170015742A1 (published 2017) are Kd and kon values, retold here.

B1: 9E8.4E-SL-9A8.12 (PR-1577548) (bispecific antibody, human IgG1, kappa, L234A L235A)
heavy: EVTLRESGPALVKPTQTLTLTCTFSGFSLSTYGMGVGWIRQPPGKALEWLANIWWDDDKYYNPSLKNRLTISKDTSKNQVVLTMTNMDPVDTATYYCARIESIGTTYSFDYWGQGTMVTVSSASTKGPEVQLVQSGAEVKKPGASVKVSCKASGYTFTNYGMYWVRQAPGQGLEWMGWINTETGKPIYADDFKGRVTMTTDTSTSTAYMELRSLRSDDTAVYYCARVDYDGSFWFAYWGQGTLVTVSSASTKGPSVFPLAPSSKSTSGGTAALGCLVKDYFPEPVTVSWNSGALTSGVHTFPAVLQSSGLYSLSSVVTVPSSSLGTQTYICNVNHKPSNTKVDKKVEPKSCDKTHTCPPCPAPEAAGGPSVFLFPPKPKDTLMISRTPEVTCVVVDVSHEDPEVKFNWYVDGVEVHNAKTKPREEQYNSTYRVVSVLTVLHQDWLNGKEYKCKVSNKALPAPIEKTISKAKGQPREPQVYTLPPSREEMTKNQVSLTCLVKGFYPSDIAVEWESNGQPENNYKTTPPVLDSDGSFFLYSKLTVDKSRWQQGNVFSCSVMHEALHNAYTQKSLSLSPGK
light: EFVLTQSPGTLSLSPGERATLSCERSSGDIGESYVSWYQQKPGQAPRLVIYADDQRPSGIPDRFSGSGSGTDFTLTISRLEPEDFAVYYCQSYDINIDIVFGGGTKVEIKRTVAAPSVFIFPPDTQLTQSPSSLSASVGDRVTITCRASESVSTVIHWYQQKPGKQPKLLIHGASNLESGVPSRFSGSGSGTDFTLTISSLQPEDFATYFCQQHWNDPPTFGQGTKLEIKRTVAAPSVFIFPPSDEQLKSGTASVVCLLNNFYPREAKVQWKVDNALQSGNSQESVTEQDSKDSTYSLSSTLTLSKADYEKHKVYACEVTHQGLSSPVTKSFNRGEC
notes: DVD-Ig: outer hBDI-9E8.4E (PDGF), inner hBEW-9A8.12 (VEGF), linkers HG-short/LK-long; Human IgG1 L234A, L235A, H435A with kappa
B2: CL-34565_GS_CL-33675 (PR-1613183) (bispecific antibody, human IgG1, kappa, L234A L235A)
heavy: EVQLVQSGSELKKPGASVKVSCKASGYTFTDYGMYWVRQAPGQGLEWMGWIDTETGDPTYADDFKGRFVFSLDTSVSTAYLQISSLKAEDTAVYYCARTNYYYRNYMFYFDYWGQGTMVTVSSGGGGSGGGGSEVTLRESGPALVKPTQTLTLTCTFSGFSLSTYGMGVGWIRQPPGKALEWLANIWWDDDKYYNPSLKNRLTISKDTSKNQVVLTMTNMDPVDTATYYCARIESSGPKYSFDYWGQGTMVTVSSASTKGPSVFPLAPSSKSTSGGTAALGCLVKDYFPEPVTVSWNSGALTSGVHTFPAVLQSSGLYSLSSVVTVPSSSLGTQTYICNVNHKPSNTKVDKKVEPKSCDKTHTCPPCPAPEAAGGPSVFLFPPKPKDTLMISRTPEVTCVVVDVSHEDPEVKFNWYVDGVEVHNAKTKPREEQYNSTYRVVSVLTVLHQDWLNGKEYKCKVSNKALPAPIEKTISKAKGQPREPQVYTLPPSREEMTKNQVSLTCLVKGFYPSDIAVEWESNGQPENNYKTTPPVLDSDGSFFLYSKLTVDKSRWQQGNVFSCSVMHEALHNAYTQKSLSLSPGK
light: EIVLTQSPATLSLSPGERATLFCRASQSVSNHMHWYQQKPGQAPRLLIYGASILESGVPARFSGSGSGTDFTLTISSLEPEDFAVYYCQQSWYDPITFGQGTKLEIKGGSGGGGSGGEIVLTQSPGTLSLSPGERATLSCRASSGSIWYSFVSWYQQKPGQAPRLLIYADDQRASGIPDRFSGSGSGTDFTLTISRLEPEDFAVYYCQSYGINIDVVFGGGTKVEIKRTVAAPSVFIFPPSDEQLKSGTASVVCLLNNFYPREAKVQWKVDNALQSGNSQESVTEQDSKDSTYSLSSTLTLSKADYEKHKVYACEVTHQGLSSPVTKSFNRGEC
notes: DVD-Ig: outer CL-34565 (VEGF), inner CL-33675 (PDGF), linkers GS-H10/GS-L10(dR); Human IgG1 L234A, L235A, H435A with kappa
B3: CL-34565_GS_9E8.4 (PR-1613184) (bispecific antibody, human IgG1, kappa, L234A L235A)
heavy: B2 heavy with S236I, P238T, K239T
light: EIVLTQSPATLSLSPGERATLFCRASQSVSNHMHWYQQKPGQAPRLLIYGASILESGVPARFSGSGSGTDFTLTISSLEPEDFAVYYCQQSWYDPITFGQGTKLEIKGGSGGGGSGGEFVLTQSPGTLSLSPGERATLSCERSSGDIGDSYVSWYQQKPGQAPRLVIYADDQRPSGIPDRFSGSGSGTDFTLTISRLEPEDFAVYYCQSYDINIDIVFGGGTKVEIKRTVAAPSVFIFPPSDEQLKSGTASVVCLLNNFYPREAKVQWKVDNALQSGNSQESVTEQDSKDSTYSLSSTLTLSKADYEKHKVYACEVTHQGLSSPVTKSFNRGEC
notes: DVD-Ig: outer CL-34565 (VEGF), inner hBDI-9E8.4 (PDGF), linkers GS-H10/GS-L10(dR); Human IgG1 L234A, L235A, H435A with kappa
B4: 9E8.4E-LS-9A8.12 (PR-1577550) (bispecific antibody, human IgG1, kappa, L234A L235A)
heavy: EVTLRESGPALVKPTQTLTLTCTFSGFSLSTYGMGVGWIRQPPGKALEWLANIWWDDDKYYNPSLKNRLTISKDTSKNQVVLTMTNMDPVDTATYYCARIESIGTTYSFDYWGQGTMVTVSSASTKGPSVFPLAPEVQLVQSGAEVKKPGASVKVSCKASGYTFTNYGMYWVRQAPGQGLEWMGWINTETGKPIYADDFKGRVTMTTDTSTSTAYMELRSLRSDDTAVYYCARVDYDGSFWFAYWGQGTLVTVSSASTKGPSVFPLAPSSKSTSGGTAALGCLVKDYFPEPVTVSWNSGALTSGVHTFPAVLQSSGLYSLSSVVTVPSSSLGTQTYICNVNHKPSNTKVDKKVEPKSCDKTHTCPPCPAPEAAGGPSVFLFPPKPKDTLMISRTPEVTCVVVDVSHEDPEVKFNWYVDGVEVHNAKTKPREEQYNSTYRVVSVLTVLHQDWLNGKEYKCKVSNKALPAPIEKTISKAKGQPREPQVYTLPPSREEMTKNQVSLTCLVKGFYPSDIAVEWESNGQPENNYKTTPPVLDSDGSFFLYSKLTVDKSRWQQGNVFSCSVMHEALHNAYTQKSLSLSPGK
light: EFVLTQSPGTLSLSPGERATLSCERSSGDIGESYVSWYQQKPGQAPRLVIYADDQRPSGIPDRFSGSGSGTDFTLTISRLEPEDFAVYYCQSYDINIDIVFGGGTKVEIKRTVAAPDTQLTQSPSSLSASVGDRVTITCRASESVSTVIHWYQQKPGKQPKLLIHGASNLESGVPSRFSGSGSGTDFTLTISSLQPEDFATYFCQQHWNDPPTFGQGTKLEIKRTVAAPSVFIFPPSDEQLKSGTASVVCLLNNFYPREAKVQWKVDNALQSGNSQESVTEQDSKDSTYSLSSTLTLSKADYEKHKVYACEVTHQGLSSPVTKSFNRGEC
notes: DVD-Ig: outer hBDI-9E8.4E (PDGF), inner hBEW-9A8.12 (VEGF), linkers HG-long/LK-short; Human IgG1 L234A, L235A, H435A with kappa
B5: CL-34565_GS_3E2.1 (PR-1613185) (bispecific antibody, human IgG1, kappa, L234A L235A)
heavy: EVQLVQSGSELKKPGASVKVSCKASGYTFTDYGMYWVRQAPGQGLEWMGWIDTETGDPTYADDFKGRFVFSLDTSVSTAYLQISSLKAEDTAVYYCARTNYYYRNYMFYFDYWGQGTMVTVSSGGGGSGGGGSEVQLVQSGAEVKKPGSSVKVSCKASGYTFTESYMYWVKQAPGQGLELIGRIDPEDGSTDYVEKFKNKATLTADKSTSTAYMELSSLRSEDTAVYFCARFGARSYFYPMDAWGQGTTVTVSSASTKGPSVFPLAPSSKSTSGGTAALGCLVKDYFPEPVTVSWNSGALTSGVHTFPAVLQSSGLYSLSSVVTVPSSSLGTQTYICNVNHKPSNTKVDKKVEPKSCDKTHTCPPCPAPEAAGGPSVFLFPPKPKDTLMISRTPEVTCVVVDVSHEDPEVKFNWYVDGVEVHNAKTKPREEQYNSTYRVVSVLTVLHQDWLNGKEYKCKVSNKALPAPIEKTISKAKGQPREPQVYTLPPSREEMTKNQVSLTCLVKGFYPSDIAVEWESNGQPENNYKTTPPVLDSDGSFFLYSKLTVDKSRWQQGNVFSCSVMHEALHNAYTQKSLSLSPGK
light: EIVLTQSPATLSLSPGERATLFCRASQSVSNHMHWYQQKPGQAPRLLIYGASILESGVPARFSGSGSGTDFTLTISSLEPEDFAVYYCQQSWYDPITFGQGTKLEIKGGSGGGGSGGETVLTQSPATLSLSPGERATLSCRASESVSTLMHWYQQKPGQQPRLLIYGASNLESGVPARFSGSGSGTDFTLTISSLEPEDFAVYFCQQSWNDPWTFGGGTKVEIKRTVAAPSVFIFPPSDEQLKSGTASVVCLLNNFYPREAKVQWKVDNALQSGNSQESVTEQDSKDSTYSLSSTLTLSKADYEKHKVYACEVTHQGLSSPVTKSFNRGEC
notes: DVD-Ig: outer CL-34565 (VEGF), inner hBFU-3E2.1 (PDGF), linkers GS-H10/GS-L10(dR); Human IgG1 L234A, L235A, H435A with kappa
B6: 9E8.4E-GS-9A8.12 (PR-1578137) (bispecific antibody, human IgG1, kappa, L234A L235A)
heavy: EVTLRESGPALVKPTQTLTLTCTFSGFSLSTYGMGVGWIRQPPGKALEWLANIWWDDDKYYNPSLKNRLTISKDTSKNQVVLTMTNMDPVDTATYYCARIESIGTTYSFDYWGQGTMVTVSSGGGGSGGGGSEVQLVQSGAEVKKPGASVKVSCKASGYTFTNYGMYWVRQAPGQGLEWMGWINTETGKPIYADDFKGRVTMTTDTSTSTAYMELRSLRSDDTAVYYCARVDYDGSFWFAYWGQGTLVTVSSASTKGPSVFPLAPSSKSTSGGTAALGCLVKDYFPEPVTVSWNSGALTSGVHTFPAVLQSSGLYSLSSVVTVPSSSLGTQTYICNVNHKPSNTKVDKKVEPKSCDKTHTCPPCPAPEAAGGPSVFLFPPKPKDTLMISRTPEVTCVVVDVSHEDPEVKFNWYVDGVEVHNAKTKPREEQYNSTYRVVSVLTVLHQDWLNGKEYKCKVSNKALPAPIEKTISKAKGQPREPQVYTLPPSREEMTKNQVSLTCLVKGFYPSDIAVEWESNGQPENNYKTTPPVLDSDGSFFLYSKLTVDKSRWQQGNVFSCSVMHEALHNAYTQKSLSLSPGK
light: EFVLTQSPGTLSLSPGERATLSCERSSGDIGESYVSWYQQKPGQAPRLVIYADDQRPSGIPDRFSGSGSGTDFTLTISRLEPEDFAVYYCQSYDINIDIVFGGGTKVEIKRGGSGGGGSGDTQLTQSPSSLSASVGDRVTITCRASESVSTVIHWYQQKPGKQPKLLIHGASNLESGVPSRFSGSGSGTDFTLTISSLQPEDFATYFCQQHWNDPPTFGQGTKLEIKRTVAAPSVFIFPPSDEQLKSGTASVVCLLNNFYPREAKVQWKVDNALQSGNSQESVTEQDSKDSTYSLSSTLTLSKADYEKHKVYACEVTHQGLSSPVTKSFNRGEC
notes: DVD-Ig: outer hBDI-9E8.4E (PDGF), inner hBEW-9A8.12 (VEGF), linkers GS-H10/GS-L10; Human IgG1 L234A, L235A, H435A with kappa

Numbering of substitutions follows the chain as printed. Names may count otherwise.

T1 sequence (P01127 82-190 limits assumed): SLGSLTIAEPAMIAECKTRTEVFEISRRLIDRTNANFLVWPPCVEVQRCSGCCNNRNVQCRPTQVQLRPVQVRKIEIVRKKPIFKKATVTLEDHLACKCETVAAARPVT

One experiment has as its target T1, PDGF-BB (human, UniProt P01127 82-190, limits assumed).
T1 construct: also called human PDGF-BB; hPDGF-BB
Briefly: Biacore SPR; DVD-Ig captured on anti-human Fc, antigen injected. The protocol: (§1) For example, approximately 9000 RU of goat anti-human Fc specific polyclonal antibody (Thermo Fisher Scientific Inc., Rockford, Ill.) diluted in 10 mM sodium acetate (pH 4.5) is directly immobilized across a CM5 research grade biosensor chip using a standard amine coupling kit according to manufacturer's instructions and procedures at 25 μg/ml. Unreacted moieties on the biosensor surface were blocked with ethanolamine. For kinetic analysis, rate equations derived from the 1:1 Langmuir binding model were fitted simultaneously to multiple antigen injections (using global fit analysis) with the use of Scrubber 2 (BioLogic Software), Biacore Biaevaluation 4.0.1 software or Biacore T100 Evaluation software. Purified antibodies or DVD-Ig molecules were diluted in running buffer for capture across goat anti-human Fc reaction surfaces. Antibodies or DVD-Ig molecules to be captured as a ligand (1 μg/ml) were injected over reaction matrices at a flow rate of 10 μl/minute. During the assay, all measurements were referenced against the capture surface alone (i.e., with no captured antibody or DVD-Ig molecule). […] The equilibrium dissociation constant KD (M) of the reaction between antibodies and the target antigen was then calculated from the kinetic rate constants by the following formula: KD=Koff/Kₒₙ. Binding was recorded as a function of time and kinetic rate constants were calculated.
B1: the affinity, expressed as Kd, was 6.4 pM and the kon (in general, a measure of how fast the partners come together) was determined as 5e+07 M⁻¹ s⁻¹.

Consider B2, for which the Kd – broadly, a measure of binding affinity in units of concentration – came out at 0.19 pM and the kon worked out at 6e+07 M⁻¹ s⁻¹.

The molecule B3 registered a Kd of 5.4 pM and a kon of 3.5e+07 M⁻¹ s⁻¹.

In turn, B4 returned a Kd of 5 pM and a kon of 5e+07 M⁻¹ s⁻¹.

B5: the Kd was found to be 12 pM and the kon worked out at 4.5e+07 M⁻¹ s⁻¹.

B6 had a Kd of 8.8 pM and a kon of 5e+07 M⁻¹ s⁻¹.

In a further experiment the target is T2, VEGF-A (human, UniProt P15692 207-395).
T2 construct: also called hVEGF165
T2 sequence (P15692 other isoform, or with tags, fused parts or gaps limits assumed): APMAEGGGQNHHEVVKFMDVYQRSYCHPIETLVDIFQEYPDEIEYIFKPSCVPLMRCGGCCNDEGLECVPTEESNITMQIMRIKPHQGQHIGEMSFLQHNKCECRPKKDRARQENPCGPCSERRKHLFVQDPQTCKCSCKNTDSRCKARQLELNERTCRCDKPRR
The description is as above. The protocol: as §1
The molecule B1 yielded a Kd of 160 pM and a kon of 2.2e+06 M⁻¹ s⁻¹.

Turning to B2, the Kd is 1.7 pM and the kon is 1.2e+07 M⁻¹ s⁻¹.

In the case of B3, the Kd came out at 1.1 pM and the kon worked out at 1.5e+07 M⁻¹ s⁻¹.

With B4, the Kd was determined as 230 pM and the kon came to 640000 M⁻¹ s⁻¹.

The molecule B5 came in with a Kd of 1.4 pM and a kon of 1.2e+07 M⁻¹ s⁻¹.

B6 showed a Kd of 380 pM and a kon of 470000 M⁻¹ s⁻¹.
